These results are taken from the supplement of paper PMC10126150.

± gives the standard deviation of the averaged measurements.

The subject of the data set is ATP. Kind of data set: switch fluorescence ratio, 500 uM ATP over buffer (Cy3 cluster intensity, sum of 5 cycles each) (fold (ratio)); higher = stronger signal-on switching upon ATP binding; sequences stand for … in TCGTCGGCAGCGTCAGATGTGTATAAGAGACAGTTTTTTTTTTTTTTTTTTTTTTTTT…TC. As to conditions: aptamer strand: ATP DNA aptamer (quencher-CACCTGGGGGAGTATTGCGGAGGAAGG + anchor), 100 nM annealed; ATP concentration: 500 uM. The essentials: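 Between each of five buffer/ATP cycles, the flow-cell was stripped with NaOH and re-annealed. Each cycle imaged Cy3-labelled switching-strand clusters, annealed to 100 nM quencher-labelled ATP aptamer on a modified Illumina MiSeq flow-cell, first in selection buffer and then after 15 min with 500 uM ATP at 22 °C. The fluorescence ratio is summed target-cycle over summed buffer-cycle Cy3 intensity per cluster, averaged per switch-domain sequence, with clusters outside 100-1000 RFU excluded.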
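Further: ATP exposure 15 min at 22 °C before imaging.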

Regarding CATATTTA, the switch fluorescence ratio amounted to 0.992 ± 0.02. Regarding CATATTTCGC, the switch fluorescence ratio was determined as 1.03 ± 0.029. Consider CATATTTGAC, for which the switch fluorescence ratio is 1.04 ± 0.074. Under CATCACATGT stands 1 ± 0.018; under CATCATGTGT, 0.9714 ± 0.0043; under CATCCGGCGG, 1.17 ± 0.038. For the sequence CATCGAGATG, the switch fluorescence ratio was found to be 1.01 ± 0.014.

On to CATCGAGCAA, for which the switch fluorescence ratio is 3.77 ± 3.5. Under CATCGCTGTG stands 0.998 ± 0.039; under CATCGGGGTC, 1.07 ± 0.021; under CATCGTGTGT, 0.972 ± 0.011. Under CATCTACTGG stands 1.01 ± 0.018. The figure for CATCTAGGGG is 0.999 ± 0.061; for CATGAAACAT it is 1.06 ± 0.048; for CATGAATGGT it is 0.962 ± 0.022. As to CATGACATTT, the switch fluorescence ratio was determined as 1.06 ± 0.028. The figure for CATGACGAAT is 1.03 ± 0.026; for CATGAGAAGG it is 1.0186 ± 0.001. The figure for CATGAGGTTC is 0.974 ± 0.03; for CATGAGTAGG it is 0.979 ± 0.016; for CATGATAGGG it is 1.01 ± 0.031. For the sequence CATGATAGGT, the switch fluorescence ratio came to 0.975 ± 0.057. The figure for CATGATCCGT is 1.008 ± 0.0093; for CATGATCTCT it is 0.987 ± 0.071; for CATGATGTGT it is 1 ± 0.042. Under CATGATGTTC stands 1.02 ± 0.021; under CATGATTAAT, 0.962 ± 0.033; under CATGATTAGT, 0.951 ± 0.041. For the sequence CATGCACTAT, the switch fluorescence ratio stood at 1.08 ± 0.021. For CATGCCAGTG, the switch fluorescence ratio was 1.049 ± 0.0013. As to CATGCGGGGG, the switch fluorescence ratio was determined as 1.01 ± 0.013. The figure for CATGCGTAAA is 1.238 ± 0.0069; for CATGCTTTCC it is 1.17 ± 0.26; for CATGCTTTCT it is 0.9836 ± 0.0079. In the case of CATGGCAACC, the switch fluorescence ratio was determined as 1.158 ± 0.0094. The figure for CATGGGAGAC is 0.986 ± 0.022. Under CATGGGCAG stands 0.992 ± 0.034; under CATGGGCTAG, 0.997 ± 0.057. Turning to CATGGGGGAT, the switch fluorescence ratio came to 1.01 ± 0.035.

On to CATGGGGGGT, for which the switch fluorescence ratio is 0.994 ± 0.014. The figure for CATGGTCATT is 1 ± 0.019; for CATGGTCTCA it is 1.017 ± 0.0017. Consider CATGGTGTGG, for which the switch fluorescence ratio came to 1.01 ± 0.031. Under CATGGTTCGT stands 0.975 ± 0.025. The figure for CATGGTTGGT is 0.969 ± 0.025. The figure for CATGTATTAT is 0.985 ± 0.034.

For the sequence CATGTCACGG, the switch fluorescence ratio worked out at 1.06 ± 0.039. Take CATGTGCGTG: the switch fluorescence ratio was found to be 1 ± 0.022.

As to CATGTGGGGT, the switch fluorescence ratio was determined as 0.992 ± 0.034. Under CATGTGTTGT stands 0.987 ± 0.014. The figure for CATGTTAGGT is 1.01 ± 0.025; for CATGTTAGTA it is 1.02 ± 0.021. Turning to CATGTTCGGG, the switch fluorescence ratio stood at 0.971 ± 0.012.

On to CATGTTGATG, for which the switch fluorescence ratio was found to be 1.0056 ± 0.00049. The figure for CATGTTGGAG is 0.9924 ± 0.0053; for CATGTTGGGT it is 1.008 ± 0.007. As for CATGTTTAGG, the switch fluorescence ratio is 0.986 ± 0.017. Regarding CATGTTTGGT, the switch fluorescence ratio is 0.987 ± 0.013. Under CATTAAAGTA stands 1.1 ± 0.021; under CATTAACGAG, 1.013 ± 0.0062; under CATTAACGGG, 1.02 ± 0.013.

CATTAAGGGC: the switch fluorescence ratio worked out at 0.962 ± 0.04. In the case of CATTAAGTGT, the switch fluorescence ratio worked out at 0.9713 ± 0.0034.

Regarding CATTAGCTGG, the switch fluorescence ratio was found to be 1.03 ± 0.002.

As to CATTAGGATA, the switch fluorescence ratio was 1.0153 ± 0.00044. The figure for CATTAGGATG is 0.9941 ± 0.0021.

Consider CATTAGGGGT, for which the switch fluorescence ratio was determined as 0.978 ± 0.012.

In the case of CATTATATGT, the switch fluorescence ratio is 1.01 ± 0.046. For the sequence CATTATTAAA, the switch fluorescence ratio stood at 0.976 ± 0.025. Under CATTATTGTT stands 0.999 ± 0.033; under CATTCGGGTG, 1.11 ± 0.027; under CATTCTTCGC, 1.15 ± 0.029.

CATTGACCGC: the switch fluorescence ratio came to 1.09 ± 0.014. In the case of CATTGACTTT, the switch fluorescence ratio turned out to be 1.02 ± 0.016. Turning to CATTGAGCGG, the switch fluorescence ratio was found to be 1 ± 0.018.

On to CATTGAGGGT, for which the switch fluorescence ratio was determined as 0.968 ± 0.052. For the sequence CATTGATTTT, the switch fluorescence ratio came to 1.013 ± 0.0022. Consider CATTGCGATC, for which the switch fluorescence ratio came to 2.08 ± 0.3. Turning to CATTGGGCGA, the switch fluorescence ratio came out at 0.982 ± 0.022. The figure for CATTGGGGGT is 1.04 ± 0.021; for CATTGGGTTT it is 0.975 ± 0.052; for CATTGGTGAG it is 0.992 ± 0.032. The figure for CATTGGTGGT is 0.989 ± 0.0039; for CATTGTAAGA it is 0.962 ± 0.043. Under CATTGTATCG stands 1.01 ± 0.011; under CATTTACCAT, 1.03 ± 0.014. In the case of CATTTAGCTC, the switch fluorescence ratio came to 1.07 ± 0.015.

Take CATTTATAAG: the switch fluorescence ratio worked out at 0.977 ± 0.013.

As for CATTTATATT, the switch fluorescence ratio turned out to be 0.986 ± 0.032.

CATTTCAGTG: the switch fluorescence ratio turned out to be 0.988 ± 0.025.

As to CATTTGATCC, the switch fluorescence ratio is 0.978 ± 0.0026.

With CATTTGGGTA, the switch fluorescence ratio came out at 1.01 ± 0.014. The figure for CATTTGTGGG is 0.993 ± 0.017; for CATTTGTGTT it is 1.02 ± 0.046; for CATTTTATAT it is 1.02 ± 0.012. The figure for CATTTTGAGC is 0.996 ± 0.014.

For the sequence CATTTTGCGT, the switch fluorescence ratio came out at 0.972 ± 0.035.

Take CATTTTGGGC: the switch fluorescence ratio amounted to 0.992 ± 0.041. On to CATTTTTGGA, for which the switch fluorescence ratio came to 1.003 ± 0.0076. The figure for CATTTTTTTA is 0.96084 ± 0.00082; for CCAAGCCTGT it is 1.007 ± 0.0098; for CCAAGCGTGC it is 1.76 ± 0.64. The figure for CCAAGCTGAA is 1.22 ± 0.035; for CCAAGGTGGA it is 1.1 ± 0.12; for CCAAGGTGGG it is 1.1 ± 0.016.

On to CCAATAAGGG, for which the switch fluorescence ratio was found to be 0.994 ± 0.048. Consider CCAATAGGCA, for which the switch fluorescence ratio turned out to be 1.046 ± 0.0078. Take CCAATGGCAG: the switch fluorescence ratio stood at 1.155 ± 0.0045. The figure for CCAATGTTTT is 0.98 ± 0.016. For the sequence CCACACCATT, the switch fluorescence ratio amounted to 1.058 ± 0.004. Under CCACAGTGTT stands 1.61 ± 0.1; under CCACCATTTT, 1.13 ± 0.12; under CCACCGGGGA, 1.85 ± 0.49. The figure for CCACCGGTAT is 1.69 ± 0.048; for CCACCTATCA it is 1.07 ± 0.031. Under CCACCTGGCG stands 1.29 ± 0.017. As to CCACGATTAA, the switch fluorescence ratio was 1.003 ± 0.008. On to CCACGCTCGC, for which the switch fluorescence ratio worked out at 2.33 ± 0.21.

On to CCACGGGGTT, for which the switch fluorescence ratio came to 1.06 ± 0.072. Under CCACGTGAGG stands 1.03 ± 0.012.
